# In publication PMC3480987 (Molecular microbiology, 2012):
# Where a chain is given by its changes, count along the chain named. Numbers in names are those of the source. Like-named read-outs stand apart in the source and are kept apart here.
# B1: Thioredoxin-UgtP fusion protein (wild type) (enzyme, B. subtilis, UniProt P54166 1-382, looked up)
# chain: MNTNKRVLILTANYGNGHVQVAKTLYEQCVRLGFQHVTVSNLYQESNPIVSEVTQYLYLKSFSIGKQFYRLFYYGVDKIYNKRKFNIYFKMGNKRLGELVDEHQPDIIINTFPMIVVPEYRRRTGRVIPTFNVMTDFCLHKIWVHENVDKYYVATDYVKEKLLEIGTHPSNVKITGIPIRPQFEESMPVGPIYKKYNLSPNKKVLLIMAGAHGVLKNVKELCENLVKDDQVQVVVVCGKNTALKESLSALEAENGDKLKVLGYVERIDELFRITDCMITKPGGITLTEATAIGVPVILYKPVPGQEKENANFFEDRGAAIVVNRHEEILESVTSLLADEDTLHRMKKNIKDLHLANSSEVILEDILKESEMMTAKQKAKVLS
# modifications: biotin on the copy immobilised on the biosensor (site not stated)
# B2: UgtP (F112A V117A E306A N309A) (enzyme, B. subtilis, UniProt P54166 1-382, looked up)
# chain: B1 chain with F112A, V117A, E306A, N309A
# modifications: biotin on the copy immobilised on the biosensor (site not stated)
# Columns and labels:
# [1] = biological target: the molecule itself; assay: BLI
# [2] = biological target: the molecule itself; assay: sucrose density gradient centrifugation + SEC
# [3] = biological target: the molecule itself; assay: BLI; remark: listed apart in the source
Protein,Kd [1],stoichiometry N [2],Kd [3]
B1,69 nM,~8.8 monomers,17 nM
B2,21 nM,–,16 nM
